Experimental findings from patent US20240245800A1, “HIGHLY SPECIFIC RABBIT SINGLE -DOMAIN ANTIBODIES FOR DRUG DELIVERY IN IMMUNOTHERAPY APPLICATIONS” (TECHNOPHAGE, INVESTIGAÇÃO E DESENVOLVIMENTO EM …, priority 2021, published 2024) are described below.

“Also recorded” adds a separate entry of the source.

The test system of data set [1] is Jurkat cells. Put plainly: WST-1 cell viability assay on Jurkat cells. The conditions noted are these: 48 h treatment. The format is cell-based, human. The method, then: FIG. 11—Cytotoxic effects of C5-DAB-SN-38. To determine the effect of C5-DAB-SN-38 on CLBL-1 and Jurkat cells, a cell viability assay was performed using the WST-1 reagent. 6×10^4 cells were seeded and treated with increasing amounts of compound. After 48 h treatment, cell viability was assessed. […] B) On the other hand, ADC had no effect on Jurkat cells, proving the specificity of the ADC. C5 was used as control. Best-fit EC50 values of each formulation were calculated using GraphPad Prism software (version 9.2.0, San Diego, CA, USA) using the log (inhibitor) vs response (variable slope) function. D) Effects of C5-DAB-SN-38 on DNA TopoI activity. To evaluate the effects of C5-DAB-SN-38 on DNA Topo I, we evaluated its activity using the Human Topoisomerase I Assay Kit. […]
To determine the effect of VL-DAB-SN-38 in CLBL-1 and Jurkat cell proliferation, a cell viability assay was performed using the Cell Proliferation Reagent WST-1 (Roche, Basel, Switzerland). […] After 48 h treatment, cell viability was assessed using WST-1, following the manufacturer's instructions. Absorbance at 450 nm was measured using the iMark microplate Reader (Bio-Rad). […] Best-fit EC50 values of each formulation were calculated using GraphPad Prism software (version 8.0, San Diego, CA, USA) using the log (inhibitor)) vs response (variable slope) function.

Data set [2] concerns CLBL-1 cells. Put plainly: Flow cytometry binding of C5 VL sdAb to CLBL-1 cells. The format is cell-based, canine. The settings on record: 3 μM C5, 37° C., different timepoints. The method, then:
FIG. 8. Binding and internalization characterization of C5 VL sdAb. C5 binding and internalization properties against CLBL-1 cells were evaluated by cytometry and immunofluorescence. A) For flow cytometry analysis, 1×10^6 of CLBL-1 cells were incubated with Live/Dead reagents for 30 minutes. Then, 3 μM of C5 were incubated with the cells for different timepoints at 37° C. After, cells were washed, fixed, permeabilized, and incubated for 30 min with anti-HA antibody, washed twice and incubated with anti-rat Alexa Fluor-488. […] B) By contrast, no binding of C5 was detected with Jurkat cells. C) To confirm the binding of C5 to the CLBL-1 verified by flow cytometry, we evaluated its distribution on the cells by immunofluorescence assay. […] Representative microphotographs with C5 (green) and DAPI stained-nuclei (blue) are shown.
To evaluate the binding of the VL C5 to the CLBL-1 cells, a FACS analysis was performed. […]
The C5 VL sdAb binding and cellular internalization properties towards CLBL-1 cells were studied by cytometry analysis and immunofluorescence. […] Live/dead reagent was used to exclude dead cells and the background noise was also evaluated in the control with the secondary antibody (data not shown). To better characterize the binding of the C5 to the CLBL-1 cells, we further evaluated the internalization of the C5 sdAb on the cells using an immunofluorescence assay. […]
A general note: A flow cytometer gives signals particle by particle.

The test system of data set [3] is CLBL-1 xenograft tumours. The settings on record: mouse, in vivo.
Procedure: C5 was radiolabelled with ^99mTc(CO)3(H2O)3 and intravenously injected in the tail vein of a xenograft mice model of cNHL. Mice were sacrificed at 15 min and 3 h and the radioactivity of each organ was measured. The activity in each organ was calculated and expressed as a percentage of injected radioactivity dose per gram of organ or tissue (% ID/g).
Radiochemical purity (RP) was checked by Reversed-phase high-performance liquid chromatography (RP-HPLC) and instant thin-layer chromatography silica gel (ITLC-SG, Agilent Technologies, USA). […] Radioactivity distribution on the ITLC-SG strip was evaluated using a miniGita Star scanning device (Elysia-Raytest, (Germany) coupled with a Gamma BGO-V-Detector (Elysia Raytest). For purification and concentration of the ^99mTc-labeled sdAb, a 3 K Amicon (Merck Milipore) was used. ^99mTc(CO)3—C5 diluted in PBS was used for the biodistribution studies after RP determination by ITLC-SG. For that, mice were intravenously injected in the tail vein with 100 μl of ^99mTc(CO)3—C5 and sacrificed by cervical dislocation at 15 min, and 3 h after injection. Radioactivity was measured using a dose calibrator (Carpintec CRC-15W). After the removal of the tumour and tissues of interest, their radioactivity was measured using a γ-counter (Berthold, Germany). […]
The target in data set [4] is T1, Human Topoisomerase I (Homo sapiens, UniProt P11387).
T1 construct: purchased Topogen
T1 sequence (P11387 1-765): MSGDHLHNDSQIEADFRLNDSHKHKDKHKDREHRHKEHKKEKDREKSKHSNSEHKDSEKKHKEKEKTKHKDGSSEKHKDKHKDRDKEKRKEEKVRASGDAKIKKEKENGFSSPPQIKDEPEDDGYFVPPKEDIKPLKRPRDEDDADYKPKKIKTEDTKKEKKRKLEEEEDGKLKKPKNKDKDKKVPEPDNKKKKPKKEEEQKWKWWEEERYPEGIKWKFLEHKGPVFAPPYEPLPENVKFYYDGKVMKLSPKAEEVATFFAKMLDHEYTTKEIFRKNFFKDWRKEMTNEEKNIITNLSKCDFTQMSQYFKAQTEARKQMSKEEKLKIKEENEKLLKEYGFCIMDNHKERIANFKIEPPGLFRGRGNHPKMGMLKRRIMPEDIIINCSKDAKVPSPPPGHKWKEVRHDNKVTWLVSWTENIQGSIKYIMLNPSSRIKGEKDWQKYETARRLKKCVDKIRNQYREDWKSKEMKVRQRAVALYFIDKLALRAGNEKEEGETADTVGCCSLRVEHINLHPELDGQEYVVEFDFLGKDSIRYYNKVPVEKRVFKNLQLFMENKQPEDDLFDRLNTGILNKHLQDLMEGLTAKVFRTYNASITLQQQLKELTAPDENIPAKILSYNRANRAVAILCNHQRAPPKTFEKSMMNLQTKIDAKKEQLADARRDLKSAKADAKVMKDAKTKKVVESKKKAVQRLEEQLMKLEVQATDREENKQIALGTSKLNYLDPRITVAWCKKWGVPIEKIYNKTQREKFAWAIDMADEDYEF
The experiment in a line: DNA Topo I activity assay (Human Topoisomerase I Assay Kit). The conditions noted are these: 10 U Topo I, supercoiled DNA, agarose gel. The format is biochemical. As to the method:
FIG. 11—Cytotoxic effects of C5-DAB-SN-38. To determine the effect of C5-DAB-SN-38 on CLBL-1 and Jurkat cells, a cell viability assay was performed using the WST-1 reagent. 6×10^4 cells were seeded and treated with increasing amounts of compound. After 48 h treatment, cell viability was assessed. […] B) On the other hand, ADC had no effect on Jurkat cells, proving the specificity of the ADC. C5 was used as control. Best-fit EC50 values of each formulation were calculated using GraphPad Prism software (version 9.2.0, San Diego, CA, USA) using the log (inhibitor) vs response (variable slope) function. D) Effects of C5-DAB-SN-38 on DNA TopoI activity. To evaluate the effects of C5-DAB-SN-38 on DNA Topo I, we evaluated its activity using the Human Topoisomerase I Assay Kit. After incubation of C5-DAB-SN-38 with 1× reaction buffer and 10 U of Topo I for 1 h at 37° C., the supercoiled DNA was added. To stop the reaction, stop loading buffer was added. DNA TopoI activity was visualized by 1% agarose gel electrophoresis […] with ethidium bromide. Relaxed DNA indicated TopoI activity while supercoiled DNA indicated an inhibition. […] Relaxed DNA and supercoiled DNA were used as positive/negative controls. C5 and SN-38 were also used as controls.
Topo I activity on VL-DAB-SN38 was determined using the Human Topoisomerase I Assay Kit (Topogen, CO, USA) according to the manufacturer's instructions. […]

B1: C5: rabbit derived anti-cNHL VL sdAb clone, SEQ. ID. 3; ^99mTc radiolabelled for biodistribution (antibody, listed as Oryctolagus cuniculus, V domains shown)
VL: ELDLTQTPSPVSASVGGTATINCQASQSVYNNYWWAWYQQRPGHPPKLLIYETSKLASGVPSRFKGSGSGTQFTLTIIDVQCDDAATYVCAGGYGTVIDNAFGGGTELEIL
modifications: 99mTc(CO)3 radiolabel
notes: ID; ^99mTc radiolabelled for biodistribution
Turning to B1, the “effect on Jurkat cell viability/proliferation” value in data set [1] is “does not affect cell proliferation”. The “binding to CLBL-1 cells (flow cytometry)” value in data set [2] is given as “specifically binds; also recorded: demonstrated to bind”; in data set [2] (listed as VL C5), “shown to bind to the cells, increasing its interaction with time”. Also, the “elimination from blood and major organs” value in data set [3] is reported as “fast elimination”. Further, the “effect on DNA Topo I activity” value in data set [4] was “not able to alter enzyme activity”.
